According to publication PMC9249791, “Molecular dissection of the glutamine synthetase-GlnR nitrogen regulatory circuitry in Gram-positive bacteria” (Nature Communications, 2022):
Values joined by “and” are separate entries in the source; they are usually repeats but may differ in a detail not shown here. Identical values can stand only once. Where no end group is shown, it is not given here.

T1: Pp GS (Paenibacillus polymyxa, UniProt A0A0F0G8G2)
T1 construct: gene glnA2; full-length, synthetic gene in pET15b, N-terminal His-tag (removed by thrombin for crystallography), E. coli C41(DE3)
T1 sequence (A0A0F0G8G2 1-442): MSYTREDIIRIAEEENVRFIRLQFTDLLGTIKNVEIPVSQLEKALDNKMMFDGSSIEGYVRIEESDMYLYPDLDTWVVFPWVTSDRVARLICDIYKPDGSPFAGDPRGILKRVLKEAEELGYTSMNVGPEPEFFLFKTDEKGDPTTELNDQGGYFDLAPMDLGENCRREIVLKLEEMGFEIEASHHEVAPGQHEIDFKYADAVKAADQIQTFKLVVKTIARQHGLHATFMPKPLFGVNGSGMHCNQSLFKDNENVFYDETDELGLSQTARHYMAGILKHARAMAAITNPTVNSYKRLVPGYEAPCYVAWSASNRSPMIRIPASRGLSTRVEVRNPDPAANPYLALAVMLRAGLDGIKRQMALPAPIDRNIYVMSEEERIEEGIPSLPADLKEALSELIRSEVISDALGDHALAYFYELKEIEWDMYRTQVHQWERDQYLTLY

T2: Sa GlnR(1-87) (S. aureus, UniProt Q53687 1-87)
T2 chain: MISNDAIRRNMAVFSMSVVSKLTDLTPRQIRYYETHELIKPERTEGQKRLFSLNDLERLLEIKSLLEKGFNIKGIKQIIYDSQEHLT

B1: Bacillus subtilis glutamine synthetase (enzyme, B. subtilis)
chain: MAKYTREDIEKLVKEENVKYIRLQFTDILGTIKNVEIPVSQLGKALDNKVMFDGSSIEGFVRIEESDMYLYPDLNTFVIFPWTAEKGKVARFICDIYNPDGTPFEGDPRNNLKRILKEMEDLGFSDFNLGPEPEFFLFKLDEKGEPTLELNDKGGYFDLAPTDLGENCRRDIVLELEEMGFEIEASHHEVAPGQHEIDFKYAGAVRSCDDIQTFKLVVKTIARKHGLHATFMPKPLFGVNGSGMHCNLSLFKNGVNAFFDENADLQLSETAKHFIAGIVKHATSFTAVTNPTVNSYKRLVPGYEAPCYVAWSAQNRSPLIRIPASRGISTRVEVRSVDPAANPYLALSVLLAAGLDGIKNKLEAPAPIDRNIYVMSKEERMENGIVDLPATLAEALEEFKSNEVMVKALGEHLFEHFIEAKEIEWDMFRTQVHPWEREQYMSQY
notes: glutamine synthetase (GS, class GSI-alpha) of B. subtilis; gene bought from Genscript, in pET15b; Dodecamer as apo protein; tetradecamer (14 copies) in the complexes with TnrA, GlnR and the GlnR C-tail peptide; The His-tag was removed only for crystallography; also called Bs GS; source: E. coli C41(DE3), purified (cobalt NTA); copies: 12
B2: fluoresceinated Sa GlnR C-tail peptide (peptide)
peptide: fluorescein-KPIGETLPINRGDLSRFIK
B3: Bs GlnR C-tail peptide (peptide)
peptide: MQAGRFQRGNTFRQGDMSRFFH
notes: C-tail residues of GlnR of B. subtilis; also called Bs GlnR peptide; source: synthetic peptide, bought: Genscript
B4: Lm GlnR(1-87), His-tag removed (crystallography) (domain or fragment, L. monocytogenes, UniProt L8DSZ4 1-87, looked up)
chain: MSEKEIRRSMPLFPIGPVMKLTDLTARQIRYYEDQGLIHPARNQGNHRLYSLQDIDVLLEIKDYLNDGLNIAGIKKMYQMQQKESKE
notes: GlnR of L. monocytogenes (122 residues), residues 1-87; Dimer on the 21 bp operator DNA, generated by crystallographic symmetry; also called Lm GlnR-DNA complex; source: E. coli C41(DE3), purified (cobalt NTA, thrombin digestion, Ni-NTA); not shown: His-tag, N-terminal, cleaved
B5: Bacillus subtilis TnrA, full length (natural protein, B. subtilis, UniProt Q45666 1-110, looked up)
chain: MTTEDHSYKDKKVISIGIVSELTGLSVRQIRYYEERKLIYPQRSSRGTRKYSFADVERLMDIANKREDGVQTAEILKDMRKKEQMLKNDPQVRKKMLEGQLNAHFRYKNR
notes: TnrA transcription regulator (MerR-like) of B. subtilis; Its production is not described here; also called FL TnrA; Bs TnrA

Assays:
[1] = target: Paenibacillus polymyxa glutamine synthetase, His-tag removed (crystallography) (P. polymyxa); assay: crystal structure; GS reacted with 5 mM MgCl2, 5 mM ATP and 5 mM Met-Sox (Met-Sox-P-ADP transition state complex); hanging drop, rt
[2] = target: Staphylococcus aureus glutamine synthetase, His-tag removed (crystallography) (S. aureus); assay: as above
[3] = target: Staphylococcus aureus glutamine synthetase (S. aureus); assay: cryo-EM structure; apo GS without peptide, 0.9-1.0 mg/mL, exchanged into Buffer B
[4] = target: fluoresceinated Sa GlnR C-tail peptide (S. aureus); assay: fluorescence polarisation; FBI-GS against the corresponding fluoresceinated GlnR C-tail; 25 mM Tris pH 7.5, 100 mM NaCl, 5 mM MgCl2, 20 mM glutamine; three technical repeats
[5] = target: Staphylococcus aureus glutamine synthetase (S. aureus); assay: cryo-EM structure; GS (0.75-1.0 mg/mL) with 2.5 or 5 mM GlnR C-tail peptide, 30 min at rt; Buffer B (12.5 mM Tris pH 7.5, 20 mM glutamine, 5 mM MgCl2, 150 mM NaCl, 2.5% glycerol, 1 mM BME)
[6] = target: Paenibacillus polymyxa glutamine synthetase (P. polymyxa); assay: cryo-EM structure; apo GS without peptide, 0.9-1.0 mg/mL, exchanged into Buffer B
[7] = target: fluoresceinated Pp GlnR C-tail peptide (P. polymyxa); assay: fluorescence polarisation; FBI-GS against the corresponding fluoresceinated GlnR C-tail; 25 mM Tris pH 7.5, 100 mM NaCl, 5 mM MgCl2, 20 mM glutamine; three technical repeats
[8] = target: Paenibacillus polymyxa glutamine synthetase (P. polymyxa); assay: cryo-EM structure; GS (0.75-1.0 mg/mL) with 2.5 or 5 mM GlnR C-tail peptide, 30 min at rt; Buffer B (12.5 mM Tris pH 7.5, 20 mM glutamine, 5 mM MgCl2, 150 mM NaCl, 2.5% glycerol, 1 mM BME)
[9] = target: Listeria monocytogenes glutamine synthetase (L. monocytogenes); assay: cryo-EM structure; apo GS without peptide, 0.9-1.0 mg/mL, exchanged into Buffer B
[10] = target: fluoresceinated Lm GlnR C-tail peptide (L. monocytogenes); assay: fluorescence polarisation; FBI-GS against the corresponding fluoresceinated GlnR C-tail; 25 mM Tris pH 7.5, 100 mM NaCl, 5 mM MgCl2, 20 mM glutamine; three technical repeats
[11] = target: Listeria monocytogenes glutamine synthetase (L. monocytogenes); assay: cryo-EM structure; GS (0.75-1.0 mg/mL) with 2.5 or 5 mM GlnR C-tail peptide, 30 min at rt; Buffer B (12.5 mM Tris pH 7.5, 20 mM glutamine, 5 mM MgCl2, 150 mM NaCl, 2.5% glycerol, 1 mM BME)
[12] = target: Listeria monocytogenes glutamine synthetase, His-tag removed (crystallography) (L. monocytogenes); assay: crystal structure; GS reacted with 5 mM MgCl2, 5 mM ATP and 5 mM Met-Sox (Met-Sox-P-ADP transition state complex); hanging drop, rt
[13] = target: Sa GlnR(1-87), His-tag removed (crystallography) (S. aureus) (UniProt Q53687); assay: crystal structure; GlnR(1-87) with a 21-mer operator DNA (protein:DNA 1:1.5); GlnR dimer on the DNA
Pp GS = target: T1, Pp GS; assay: X-ray crystal structure […] Å; type: binding; details: formed in situ from 5 mM ATP and 5 mM Met-Sox with 5 mM MgCl2; with Met-Sox-P
[14] = target: the molecule itself; assay: negative stain EM; apo Bs GS alone; 25 mM Tris pH 7.5, 200 mM NaCl, 5% glycerol, 1 mM MgCl2; 20-50 μg/mL; 2D class averages
[15] = target: fluoresceinated Bs GlnR C-tail peptide (B. subtilis); assay: fluorescence polarisation; FBI-GS against the corresponding fluoresceinated GlnR C-tail; 25 mM Tris pH 7.5, 100 mM NaCl, 5 mM MgCl2, 20 mM glutamine; three technical repeats
[16] = target: the molecule itself; assay: cryo-EM structure; GS (0.75-1.0 mg/mL) with 2.5 or 5 mM GlnR C-tail peptide, 30 min at rt; Buffer B (12.5 mM Tris pH 7.5, 20 mM glutamine, 5 mM MgCl2, 150 mM NaCl, 2.5% glycerol, 1 mM BME)
Sa GlnR(1-87) = target: T2, Sa GlnR(1-87); assay: FP
[17] = target: B1; assay: cryo-EM structure; GS (0.75-1.0 mg/mL) with 2.5 or 5 mM GlnR C-tail peptide, 30 min at rt; Buffer B (12.5 mM Tris pH 7.5, 20 mM glutamine, 5 mM MgCl2, 150 mM NaCl, 2.5% glycerol, 1 mM BME); details: both partners purified
[18] = target: the molecule itself; assay: crystal structure; GlnR(1-87) with a 21-mer operator DNA (protein:DNA 1:1.5); GlnR dimer on the DNA
[19] = target: B1; assay: negative stain EM; Bs GS mixed 1:1 with FL TnrA; 25 mM Tris pH 7.5, 200 mM NaCl, 5% glycerol, 1 mM MgCl2, 5 mM glutamine; 2D class averages; details: both partners purified

Paenibacillus polymyxa glutamine synthetase, His-tag removed (crystallography) (enzyme)
stoichiometry N [1]: 12

Staphylococcus aureus glutamine synthetase, His-tag removed (crystallography) (enzyme)
stoichiometry N [2]: 12

Staphylococcus aureus glutamine synthetase (enzyme)
stoichiometry N [3]: 12 | Kd [4]: 7.2 µM | stoichiometry N [5]: 12

Paenibacillus polymyxa glutamine synthetase (enzyme)
stoichiometry N [6]: 12 and 14 | Kd [7]: 18.7 µM | stoichiometry N [8]: 14 and 12

Listeria monocytogenes glutamine synthetase (enzyme)
stoichiometry N [9]: 12 | Kd [10]: 27.2 µM | stoichiometry N [11]: 14

Listeria monocytogenes glutamine synthetase, His-tag removed (crystallography) (enzyme)
stoichiometry N [12]: 12

Sa GlnR(1-87), His-tag removed (crystallography) (from UniProt Q53687 1-87) (domain or fragment)
stoichiometry N [13]: 2

Nc1ncnc2c1ncn2[C@@H]1O[C@H](COP(=O)(O)OP(=O)(O)O)[C@@H](O)[C@H]1O [ADP]
X-ray crystal structure 1.98 Å (Pp GS): densities for Met-Sox-P and ADP were clearly observed in each enzyme

B1
stoichiometry N [14]: 12 | Kd [15]: 4.2 µM | stoichiometry N [16]: 14

B2
Kd (Sa GlnR(1-87)): 56 µM

B3
binding result [17]: binds

B4
stoichiometry N [18]: 2

B5
binding result [19]: binds
